Source: patent US20260209349A1 (IMBIORAY HANGZHOU BIOMEDICINE, published 2026)

Key:
Human CD33 = Human CD33 (human, UniProt P20138 18-259); assay: BLI, affinity to target
Human CLL1 = target: T1, Human CLL1 (human, UniProt Q5QGZ9 65-265, limits assumed); assay: BLI, affinity to target
T1 construct: also called C-type lectin-like molecule 1
T1 sequence (looked up): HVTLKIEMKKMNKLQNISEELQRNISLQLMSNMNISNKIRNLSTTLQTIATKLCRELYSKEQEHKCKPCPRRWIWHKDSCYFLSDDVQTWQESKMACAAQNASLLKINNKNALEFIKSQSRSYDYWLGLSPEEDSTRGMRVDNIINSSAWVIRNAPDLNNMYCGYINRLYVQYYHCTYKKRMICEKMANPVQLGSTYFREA

Chain of Human CD33 (P20138 18-259 limits assumed): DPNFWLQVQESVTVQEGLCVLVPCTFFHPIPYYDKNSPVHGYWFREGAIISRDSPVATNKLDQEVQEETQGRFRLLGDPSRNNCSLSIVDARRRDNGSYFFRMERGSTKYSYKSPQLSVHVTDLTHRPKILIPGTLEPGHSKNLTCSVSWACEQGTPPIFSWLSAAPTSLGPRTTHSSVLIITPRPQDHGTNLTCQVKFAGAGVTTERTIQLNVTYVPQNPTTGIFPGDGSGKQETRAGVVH

B1: Anti-CD33-CLL1 bispecific antibody (bispecific antibody, human IgG1, kappa)
heavy 1: not shown
light 1: not shown
heavy 2: not shown
light 2: DIQMTQSPSSLSASVGDRVTITCRASESVDNYGISFMNWFQQKPGKAPKLLIYAASNQGSGVPSRFSGSGSGTDFTLTISSLQPDDFATYYCQQSKEVPWTFGQGTKVEIKRTVAAPSVFIFPPSDEQLKSGTASVVCLLNNFYPREAKVQWKVDNALQSGNSQESVTEQDSKDSTYSLSSTLTLSKADYEKHKVYACEVTHQGLSSPVTKSFNRGEC
notes: Copies '1' follow from this arm exchange; also called anti-CD33/CLL1 antibody
Work on B1 yielded a Kd (Human CD33) of 5.5 nM and a Kd (Human CLL1) of 26 nM.
